Reference: publication PMC12744356

Target: EsxX glycine zipper peptide (EsxX 448-476), N-terminal biotin (Staphylococcus aureus (ST398))
Experiment: BLI; biotinylated peptide captured on streptavidin SAX biosensors (~1.0 nm); ExiABhis 50 uM to 1.6 uM in 2-fold dilutions in 10X Kinetics Buffer; association 180 s at 25 C; 1:1 kinetic model and steady-state model

ExiA-ExiBhis dimer (complex)
Kd: 22 µM
stoichiometry N: 1
